Values quoted from earlier work in publication PMC4465451.

Target: His5 (UniProt position 30, DRVYIHPFHLV)
Assay: mass spectrometry
Conditions: Free peptide, taken as fully solvent accessible

Angiotensin III
pKa: 6.50
